System: OsHPPD
Test: HPPD enzyme activity assay: Km, Kcat and Kcat/Km of OsHPPDs
Assay type: biochemical, Oryza sativa
Conditions: substrate 4-HPP
Description: The rice OsHPPD protein and homogentisate 1,2-dioxygenase (HGD) were obtained by heterologously expressed in E. coli wherein the gene was inserted into the pET 15b expression vector and expressed in the BL21 (DE3) expression strain, and purified by the Ni-NTA resin. • (1) The HPPD open reading frame (ORF) of the positive clone was cloned into the pET-15b vector to form a 6His-HPPD expression vector, and transformed into the BL21 (DE3) cell. The expression strain was inoculated in 10 mL of 2×YT culture medium, and cultivated overnight on a shaker at 37° C. and 200 rpm. The 10 mL of the culture was inoculated in 1 L of 2×YT culture medium and cultivated until the OD600 reached 0.6-0.8, cooled to a temperature of 16° C., and subjected to induced-expression with 0.2 mM IPTG (isopropyl thiogalactoside) overnight. The strains were collected by centrifugation at 2800×g. • (2) The collected strains were re-suspended with the buffer A (50 mM Tris pH 8.0, 500 mM NaCl, 20 mM imidazole), to which PMSF (phenylmethanesulfonyl fluoride) at the final concentration of 1 mM and 250 μL of a protease inhibitor cocktail (i.e., a mixture of multiple protease inhibitors), and mixed. The cells were broken by ultrasound in ice-bath (40% total power, work for 3 seconds/6 seconds interval, 2×30 minutes (Ningbo Scientz Biotechnology Co., Ltd., Ningbo, China)), and centrifuged at 12000 rpm at 4° C. for 30 minutes; and the supernatant was filtered with a 0.22 μm filter membrane. • (3) Purification with the Ni-NTA column: the supernatant was in contact with the Ni-NTA resin, then rinsed with a buffer A containing 50 mM imidazole to remove the impurities, and finally, eluted with an elution buffer containing 400 mM imidazole. • (4) The approximate purity of the protein of interest was analyzed by SDS-PAGE. The eluates containing of the protein of interest were combined and concentrated by an ultrafiltration device (10 kDa molecular weight cut-off, Amicon Ultra). The solution was replaced with a solution containing 20 mM Tris-HCl and having a pH of 7.5 for at least 3 times to desalt. The total protein concentration was determined by the BCA method.
• 1. The activity of a HPPD enzyme was determined by detecting the conversion of 4-hydroxyphenylpyruvate (4-HPP) to homogentisic acid (HGA) catalyzed by the HPPD enzyme and the conversion of HGA to maleylacetoacetate (MAA) catalyzed by homogentisate dioxygenase. […] 6 μl of 4-hydroxyphenylpyruvate (4-HPP) having a concentration that was as 50 times as the final concentration of the substrate were added to an ELSA plate, and then 294 μL of hydroxyethylpiperazine ethanesulfonic acid (HEPES) with a final concentration of 25 mM and pH of 7, 2 mM of Vitamin C, 10 mM FeSO4, 50 nM homogentisate dioxygenase and 5 to 240 nM HPPD enzyme were added thereto at one time. The final concentration of reaction substrate 4-HPP usually ranged from 1 to 100 μM. • 3. The absorbance changes of the reaction wells at 318 nm were continuously monitored by a UV ELISA detector (ReadMax 1900 photoabsorption type full-wavelength microplate reader) (Shanghai). • 4. Determination of Km, Kcat and Kcat/Km of OsHPPDs
Vmax is the maximum catalytic reaction rate achievable by enzymatic catalysis. The Michaelis constant Km is the concentration of a substrate required when the enzyme catalyzed the reaction to achieve half of the maximum rate (Vmax). The Km value is a constant and independent of the enzyme concentration, and altered as substrate type, reaction temperature, pH, and ionic strength changed. […] is a catalytic constant of an enzyme and referred to the number of substrate molecules that could be catalyzed by an enzyme molecule or enzyme active center per second. KCat/Km represents the catalytic efficiency of enzyme. It could be seen from the data in the table that the catalytic efficiency of most HPPD mutants was enhanced.

B1: H141R/G342D/D370N: three-site mutant rice HPPD (OsHPPD3M) (protein, listed as Oryza sativa)
chain: MPPTPTPTATTGAVSAAAAAGENAGFRLVGHRRFVRANPRSDRFQALAFHHVELWCADAASAAGRFAFALGAPLAARSDLSTGNSAHASLLLRSASVAFLFTAPYGGDHGVGADAATTASIPSFSPGAARRFAADHGLAVRAVALRVADAADAFRASVAAGARPAFQPADLGGGFGLAEVELYGDVVLRFVSHPDGADAPFLPGFEGVSNPGAVDYGLRRFDHVVGNVPELAPVAAYISGFTGFHEFAEFTAEDVGTAESGLNSVVLANNAETVLLPLNEPVHGTKRRSQIQTYLDHHGGPGVQHIALASDDVLGTLREMRARSAMGGFEFLAPPPPNYYDDVRRRAGDVLSEEQINECQELGVLVDRDNQGVLLQIFTKPVGDRPTFFLEMIQRIGCMEKDESGQEYQKGGCGGFGKGNFSELFKSIEEYEKSLEAKQAPTVQGS
modifications: The amino acid sequence of Wild-Type rice HPPD protein (OsHPPD _WT)
Km: 10.9 µM

From patent US12428627B2, “Mutant p-hydroxyphenylpyruvate dioxygenase, and coding nucleic acid and use thereof” (Qingdao Kingagroot Chemical Compound Co., Ltd., priority 2018, dated 2025)
